Measurements: paper PMC6697736, “A novel thermostable D-amino acid oxidase of the thermophilic fungus Rasamsonia emersonii strain YA” (Scientific Reports, 2019)

Tests used:
ReDAAO [1] = molecular target: T1, ReDAAO (Rasamsonia emersonii, UniProt A0A499UB99); test: DNPH assay, […] D-Val as substrate; type: biochemical; conditions: read-out: % inhibition at 50 mM
T1 construct: gene DAO1; full-length, 368 aa, codon-optimised synthetic ORF in pET15b, His-tagged, E. coli BL21(DE3) pLysS; 42 kDa subunit, 185 kDa tetramer; noncovalent FAD

ReDAAO [2] = molecular target: T1, ReDAAO; test: absorption spectrum; TLC of flavin released by heat denaturation; type: binding; conditions: noncovalent; co-purified from E. coli; pH 8.0
purified protein [3] = substrate: C[C@@H](N)C(=O)O; test: purified protein; conditions: apparent, 55 °C, 50 mM KPi pH 8.0, 0.02 mM FAD, O2 co-substrate
purified protein [4] = substrate: CC(C)[C@@H](N)C(=O)O; test: purified protein; type: biochemical, Rasamsonia emersonii; conditions: apparent, 55 °C, 50 mM KPi pH 8.0, 0.02 mM FAD, O2 co-substrate
purified protein [5] = substrate: CSCC[C@@H](N)C(=O)O; test: purified protein; type: biochemical, Rasamsonia emersonii; conditions: apparent, 55 °C, 50 mM KPi pH 8.0, 0.02 mM FAD, O2 co-substrate
purified protein [6] = substrate: N=C(N)NCCC[C@@H](N)C(=O)O; test: purified protein; type: biochemical, Rasamsonia emersonii; conditions: apparent, 55 °C, 50 mM KPi pH 8.0, 0.02 mM FAD, O2 co-substrate
purified protein [7] = substrate: N[C@H](CCC(=O)O)C(=O)O; test: purified protein; type: biochemical, Rasamsonia emersonii; conditions: apparent, 55 °C, 50 mM KPi pH 8.0, 0.02 mM FAD, O2 co-substrate

**Q.** Which inhibition at 50000 µM (ReDAAO [1]) does the source give for `O=C(O)c1ccccc1` [benzoate] here?
**A.** The inhibition at 50000 µM was 13.2%.

**Q.** `O=C(O)C[C@@H](O)C(=O)O` [D-malate] was tested. Which inhibition at 50000 µM (ReDAAO [1]) did it give?
**A.** Its inhibition at 50000 µM is 17.2%.

**Q.** How did the “absorption spectrum; TLC of flavin released by heat denaturation” value (ReDAAO [2]) turn out when `Cc1cc2nc3c(=O)[nH]c(=O)nc-3n(C[C@H](O)[C@H](O)[C@H](O)COP(=O)(O)OP(=O)(O)OC[C@H]3O[C@@H](n4cnc5c(N)ncnc54)[C@H](O)[C@@H]3O)c2cc1C` [FAD] was run?
**A.** The value was “ReDAAO contains noncovalently bound FAD that functions as a cofactor”.

**Q.** With `C/C=C/C(=O)O` [crotonate] as the molecule, how does the inhibition at 50000 µM (ReDAAO [1]) read?
**A.** The inhibition at 50000 µM was 22.6%.

B1: ReDAAO (Rasamsonia emersonii) (protein)
chain: MATNNIVVLGAGVSGLTTAWLLSKDPSNKITVAAKHMPGDYDIEYCSPWAGANYLPVGAENSRVGQWERATWPHLRDIAQNHPEAGIHFQDTVVYNRTKDQGSTTGQWFSELVKPNPWYGKVLPNFRELSKDELPPGIDNANRFTSVCINTAVYLPWLVGQCRKNGVVFKRAVFKHVAEAANAHHSGQKADLVVNCTGLSSRKLGGVQDNTLLPARGQIVVVRNDPGLMCSISGTDDGDDEVTYMMTRAAGGGTILGGTYQKHNWDSLPDPNLAVRIMKRCIELCPSLVAPGQGIEGLDIIRHGVGLRPVREDGPRIEKELIDGVWVVHNYGHGGYGYQTSFGCATTAVEVVREALQQQKQRRDKARL
notes: full-length, 368 aa, codon-optimised synthetic ORF in pET15b, His-tagged, E. coli BL21(DE3) pLysS; 42 kDa subunit, 185 kDa tetramer; noncovalent FAD
**Q.** Which results are given for B1?
**A.** Km (purified protein [3]): 2700 ± 300 µM; kcat (purified protein [3]): 189 s⁻¹; kcat/Km (purified protein [3]): 69900 M⁻¹ s⁻¹; Km (purified protein [4]): 628 ± 40 µM; kcat (purified protein [4]): 225 ± 2.4 s⁻¹; kcat/Km (purified protein [4]): 358000 M⁻¹ s⁻¹; Km (purified protein [5]): 213 ± 30 µM; kcat (purified protein [5]): 120 ± 3.1 s⁻¹; kcat/Km (purified protein [5]): 562000 M⁻¹ s⁻¹; Km (purified protein [6]): 19200 ± 4300 µM; kcat (purified protein [6]): 45.6 ± 4.5 s⁻¹; kcat/Km (purified protein [6]): 2380 M⁻¹ s⁻¹; Km (purified protein [7]): 12100 ± 2900 µM; kcat (purified protein [7]): 90.7 ± 6.6 s⁻¹; kcat/Km (purified protein [7]): 7490 M⁻¹ s⁻¹
